The target of assay [1] is T1, biotinylated recombinant TPBG protein (Homo sapiens (Human), UniProt Q13641 32-355, Biotinylated; the number and positions of the biotin labels are not stated and the letters do not carry them.).
T1 sequence: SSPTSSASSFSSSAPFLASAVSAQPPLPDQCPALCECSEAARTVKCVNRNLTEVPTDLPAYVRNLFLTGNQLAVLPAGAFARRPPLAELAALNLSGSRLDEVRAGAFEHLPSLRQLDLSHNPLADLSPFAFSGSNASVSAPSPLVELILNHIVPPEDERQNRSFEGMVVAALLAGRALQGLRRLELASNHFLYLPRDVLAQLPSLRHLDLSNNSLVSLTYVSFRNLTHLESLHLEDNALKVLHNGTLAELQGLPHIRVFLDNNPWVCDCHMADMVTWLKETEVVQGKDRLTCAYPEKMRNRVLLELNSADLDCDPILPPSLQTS
The assay is described as follows: competitive ELISA; row antibody 5 ug/mL; competitor: coated 103E2E9C2. On the procedure:
(§1) The purified antibodies to be tested were diluted to 1 μg/mL using PBS, and coated with high-adsorption of 96-well microplates at […]. After overnight coating at 4[…], 250 μL of blocking buffer (PBS containing 0.01% (v/v) Tween20 and 1% (w/w) BSA) was added to block coating at room temperature for 1 h, and 0.05 μg/mL of biotinylated recombinant TPBG protein was added to each well. Meanwhile, 5 μg/mL final concentration of competitive antibodies, i.e. the purified antibodies obtained from Embodiment 2 with the clone number of 12B12C7C3, 5G4H10G5, 37H9C5G2, 39A11G5F2, 52C9E9F6, 28D4E6A9, 36A10D8B12, 99E12C7H1, 103E2E9C2 and 106D5G3D10 were added and incubated at 25-37° C. for 1-2 h. The plates were washed three times with plate-washing buffer (PBS containing 0.01% (v/v) Tween20) and HRP (horseradish peroxidase)-labeled streptavidin (purchased from Sigma) was added. After incubating at 37° C. for 0.5 h, the plates were washed three times with plate-washing buffer (PBS containing 0.01% (v/v) Tween20), and 100 μL of TMB substrate was added to each well and the plates were further incubated at room temperature for 30 min prior to adding 100 μL of stop buffer (1.0N HCl) to each well. A₄₅₀ₙₘ values were read using an ELISA microplate reader (SpectraMax 384plus purchased from Molecular Device) and results were shown in FIG. 6. The higher the values of the competition rate, the closer the antigen surface of the two antibodies are.

Assay [2] addresses T1, biotinylated recombinant TPBG protein. The assay is described as follows: competitive ELISA; row antibody 5 ug/mL; competitor: coated 36A10D8B12. The method, then:
as §1
On the technique in general: In an ELISA, binding on a coated surface is turned into a signal by an enzyme label.

The target of assay [3] is T2, human TPBG-hFc (human, UniProt Q13641 32-355).
T2 construct: also called immunogen A; hFc tagged TPBG protein; not shown: The human IgG Fc fragment of the pCpC vector (Invitrogen V044-50) and any linker to it
T2 sequence: T1 sequence
In words: ELISA, coated human TPBG-hFc 1.0 ug/mL; antibody 2 nM. On the procedure:
(§2) The purified immunogen A (as for its method of preparation please refer to step 1 in Example 1) diluting with PBS to a final concentration of 1.0 μg/mL was aliquoted into a 96-well ELISA plate at 100 μL per well, and sealed with a parafilm and incubated at 4° C. overnight. The plate was washed twice with plate washing buffer (PBS containing 0.01% (v/v) Tween 20), and blocked with blocking buffer (PBS containing 0.01% (v/v) Tween 20 and 1% (w/w) BSA) at room temperature for 2 h. The blocking buffer was discarded, and 100 μL per well of the purified antibody obtained from Embodiment 2 was added. After incubating at 37° C. for 2 h, the plate was washed for three times with plate washing buffer (PBS containing 0.01% (v/v) Tween 20). HRP (horseradish peroxidase)-labeled secondary antibody (purchased from Sigma) was added and incubated at 37° C. for 2 h, and the plate was washed for three times using plate washing buffer (PBS containing 0.01% (v/v) Tween 20). 100 μL of TMB substrate was aliquoted into each well, incubated at room temperature for 30 min, and 100 μL of stop buffer (1.0N HCl) per well was subsequently added. A₄₅₀ₙₘ values were read using the ELISA plate reader (SpectraMax 384plus purchased from Molecular Device), and the results were shown in FIG. 6 and table 6. […] In Table 6 the IgG control herein is a mice IgG control, the data in the Table are OD₄₅₀ₘₙ values, and Blank means the OD₄₅₀ₘₙ value when there is only PBS buffer in the plate.

The target in assay [4] is T2, human TPBG-hFc. The assay is described as follows: ELISA, coated human TPBG-hFc 1.0 ug/mL; antibody 0.002 nM. On the procedure: as §2
Assay [5] addresses T2, human TPBG-hFc. The assay is described as follows: ELISA, coated human TPBG-hFc 1.0 ug/mL; antibody 200 nM. The method, then: as §2
Assay [6] addresses T1, biotinylated recombinant TPBG protein. The assay is described as follows: competitive ELISA; row antibody 5 ug/mL; competitor: coated 106D5G3D10. The method, then:
as §1

Assay [7] shares this target. In words: competitive ELISA; row antibody 5 ug/mL; competitor: coated 39A11G5F2. The method, then:
as §1

B1: 12B12C7C3 (antibody, V domains shown)
VH: DVQLVESGGGLVQPGGSRKLSCAASGFTFSNFGMHWVRQAPEKGLEWVAYISSGSTSFYYADTVKGRFTISRDNPKNTLFLQMTSLRSEDTAMYYCSRTNSLLRGFFDAWGAGTTVTVSS
VL: DIVLTQSPASLAVSLGQRATISCRASQSVSSSSYTYLHWYQQKPGQPPKLLIKSASNLESGVPARFSGTGSGTDFTLNIHPVEEEDTATYYCQHSWEIPLTFGAGTKLELK
notes: Mouse hybridoma antibody purified from culture supernatant; also called TPBG antibody; lead antibody
As for B1, the competition rate in assay [1] turned out to be 0%; in assay [2], 3%; in assay [6] it was 96%; in assay [7], 0%. The OD450nm turned out to be 2.84 OD450nm with human TPBG-hFc [3], 0.13 OD450nm in the assay with human TPBG-hFc [4] and 2.82 OD450nm with human TPBG-hFc [5].

For the origin of these results see patent US20210198377A1 (XDCEXPLORER SHANGHAI, published 2021).
